Data on one substance can be found in patent publication US20250346679A1.

The target in this test is mouse CD137, cell-surface (mouse) (UniProt P20334). Put plainly: cell-based or functional assay.
mouse CD137, cell-surface (mouse), sequence (P20334 24-256): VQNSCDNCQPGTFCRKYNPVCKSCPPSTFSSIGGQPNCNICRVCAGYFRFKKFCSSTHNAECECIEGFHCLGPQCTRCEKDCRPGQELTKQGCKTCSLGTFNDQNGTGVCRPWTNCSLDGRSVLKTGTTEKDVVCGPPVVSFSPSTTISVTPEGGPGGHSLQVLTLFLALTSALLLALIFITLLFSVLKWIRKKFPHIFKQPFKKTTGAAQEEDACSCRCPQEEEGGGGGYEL

Regarding G1-AA/Lob12.3 (antibody), the +XL EC50 (nM), mouse CD137 DO11.10 T cell activation assay is 2.26 nM; the +XL Emax (IL-2 pg/ml), mouse CD137 DO11.10 T cell activation assay worked out at 21300 pg/mL; the EC50 (nM), mIFN-γ release, OT-1 CD8+ T cell activation assay, with anti-hCH2 is 0.36 nM; the Emax (pg/ml), mIFN-γ release, OT-1 CD8+ T cell activation assay, with anti-hCH2 is 17800 pg/mL.
